# Test results taken from patent publication CN117567617A.
# Target: 人CLDN18.2 (human claudin18.2) (human) (UniProt P56856)
# Experiment: cell-based or functional assay
binder,measurement,value
"全人源抗CLDN18.2抗体2A2 (CLDN-BC-2A2-hH1) (antibody, V domains shown) VH: QVQLQQWGPGLVKPSQTLSLTCTVSGGSISSVGYYWSWIRQHPGQGLEWVGYIYYSGGTYYNPSLKSRVTISLDTSKNQFSLKLTSVTAADTAVYYCASYGSVSPYYYYYGMDVWGQGTTVTVSS VL: DIVMTQSPSSVSASVGDRVTITCRASQGISSWLAWYQQKPGKAPNLLISAASSLQSGVPSRFSGNGSGTDFTLTISSLQPEDFASYYCQQANSFPITFGQGTRLEIK","CDC活性 EC50 (Presto Blue, complement)",10.9 µg/mL
